How the values were obtained:
Details in all cases: protein: recombinant; tags: 6xHis (pET-28a(+))
GhWRKY27 [1] = target: T1, GhWRKY27 (Gossypium hirsutum (CCRI74), UniProt A0A068LI73 1-355); assay: EMSA; self-competition abolishes band; supershift with anti-GhWRKY27; LightShift Chemiluminescent EMSA Kit (Thermo), manufacturer's instructions; buffer, salt, pH and temperature not stated
GhWRKY27 [2] = target: T1, GhWRKY27; assay: competition; excess unlabelled mutant vs labelled N1; LightShift Chemiluminescent EMSA Kit (Thermo), manufacturer's instructions; buffer, salt, pH and temperature not stated
GhWRKY27 [3] = target: T1, GhWRKY27; assay: EMSA; self-competition; supershift with anti-GhWRKY27; LightShift Chemiluminescent EMSA Kit (Thermo), manufacturer's instructions; buffer, salt, pH and temperature not stated

T1 sequence (A0A068LI73 entry or part of it): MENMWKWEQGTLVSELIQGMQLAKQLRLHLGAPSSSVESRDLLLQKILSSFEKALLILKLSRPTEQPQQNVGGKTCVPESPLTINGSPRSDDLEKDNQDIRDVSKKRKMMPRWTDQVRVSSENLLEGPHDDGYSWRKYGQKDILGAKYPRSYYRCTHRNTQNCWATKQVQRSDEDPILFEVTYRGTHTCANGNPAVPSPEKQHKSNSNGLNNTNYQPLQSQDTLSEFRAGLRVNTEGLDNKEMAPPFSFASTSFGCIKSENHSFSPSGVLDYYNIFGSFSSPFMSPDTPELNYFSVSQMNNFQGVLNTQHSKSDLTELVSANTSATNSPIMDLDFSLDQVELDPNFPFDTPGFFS

B1: GhCYP94C1 wild probe (dsDNA)
DNA 1: CCAGCTCCTCGCGAAAAGAAAAATGACTAAAAAAATATTTAATTCTTAGT
DNA 2: ACTAAGAATTAAATATTTTTTTAGTCATTTTTCTTTTCGCGAGGAGCTGG
B1: binds (GhWRKY27 [1]).

B2: GhCYP94C1 mutant probe (dsDNA)
DNA 1: CCAGCTCCTCGCGAAAAGAAAAATGAAAAAAAAAATATTTAATTCTTAGT
DNA 2: ACTAAGAATTAAATATTTTTTTTTTCATTTTTCTTTTCGCGAGGAGCTGG
B2: no binding (GhWRKY27 [2]).

B3: GhRipen2-2 wild probe (dsDNA)
DNA 1: CTGGGCTCAGGTCAGAAAAGCTTTACTCGGGGCTTGACTCGTTTTCTAA
DNA 2: TTAGAAAACGAGTCAAGCCCCGAGTAAAGCTTTTCTGACCTGAGCCCAG
B3: binds (GhWRKY27 [3]).

Reference: paper PMC6440019, “The WRKY transcription factor GhWRKY27 coordinates the senescence regulatory pathway in upland cotton (Gossypium hirsutum L.)”
